Where no end group is shown, it is not given here.
Target: T1, cyclic nucleotide-gated channel beta 3 (CNGB3) (human, UniProt Q9NQW8 1-809, limits assumed)
T1 construct: Endogenous protein in patient material; also called human CNGB3
T1 sequence (looked up): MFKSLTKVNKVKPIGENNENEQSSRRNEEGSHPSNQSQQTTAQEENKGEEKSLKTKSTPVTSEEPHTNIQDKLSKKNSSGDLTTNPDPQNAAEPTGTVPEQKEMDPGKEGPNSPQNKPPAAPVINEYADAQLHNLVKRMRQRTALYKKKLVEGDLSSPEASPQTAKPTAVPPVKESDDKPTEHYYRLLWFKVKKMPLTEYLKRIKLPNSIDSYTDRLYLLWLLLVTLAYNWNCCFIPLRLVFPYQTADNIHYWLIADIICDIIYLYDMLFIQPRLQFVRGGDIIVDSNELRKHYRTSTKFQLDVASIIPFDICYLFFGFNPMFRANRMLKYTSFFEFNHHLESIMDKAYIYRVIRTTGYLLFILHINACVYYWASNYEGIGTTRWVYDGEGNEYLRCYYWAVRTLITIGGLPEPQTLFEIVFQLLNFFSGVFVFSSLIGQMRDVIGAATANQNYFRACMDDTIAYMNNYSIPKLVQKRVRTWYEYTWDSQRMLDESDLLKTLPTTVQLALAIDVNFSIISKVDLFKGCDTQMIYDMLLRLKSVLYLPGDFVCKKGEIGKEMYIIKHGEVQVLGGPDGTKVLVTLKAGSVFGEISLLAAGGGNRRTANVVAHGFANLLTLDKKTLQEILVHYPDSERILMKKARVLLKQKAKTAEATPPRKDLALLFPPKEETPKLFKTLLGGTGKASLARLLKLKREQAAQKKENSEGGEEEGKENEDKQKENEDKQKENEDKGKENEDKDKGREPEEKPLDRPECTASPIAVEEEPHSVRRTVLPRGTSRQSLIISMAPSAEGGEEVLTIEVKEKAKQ
Test: avidin blotting: serum exosome proteins after SDS-PAGE on PVDF, probed with 1.0 ug/mL biotinylated Z13 peptide and HRP-avidin
Procedure: The exosome was isolated from the serum using Exosome Isolation Kit (manufactured by Fujifilm Wako Pure Chemical Industries, Ltd.) according to the manufacturer's instruction. Specifically, first, the serum was centrifuged at 1,000×g at 4° C.° for 20 minutes, and the supernatant was recovered. The collected supernatant was centrifuged at 10,000×g at 4° C. for 30 minutes, and the supernatant was transferred to a new tube. Subsequently, 1.0 mL of the supernatant was mixed with exosome capture beads with a rotator at 4° C. for 180 minutes. Subsequently, after washing the capture beads, the exosome was eluted with 100 μL of an elution buffer and stored at −20° C.
An exosome isolated from 800 μL of serum was mixed with a concentrated Laemmli buffer to prepare a measurement sample. The measurement sample was isolated by SDS-PAGE and then transferred to a PVDF membrane. The PVDF membrane was blocked in 5% BSA-containing TBST (0.1 v/v % Tween-20) at room temperature for 60 minutes. The PVDF membrane after blotting was washed and incubated overnight at 4° C.° in 1.0 μg/mL of biotinylated Z13 peptide-containing TBST. […] The CNGB3 on the membrane was detected using a CCD camera system (manufactured by ATTO) and ECL prime (manufactured by GE Healthcare). […]

binding result: binds
B1: biotinylated Z13 peptide (peptide)
peptide: VRRADNRPG
modifications: also: biotin bound, position not given here
notes: Synthesized by GenScript; used at 1.0 ug/mL as the probe in avidin blotting, detected with HRP-avidin
